Series [1] can be described thus: Solubility of the AIDA1 PTB domain and mutants. The text has this:
Since the objective of the aromatic-alanine substitutions was to improve solubility for a structure determination, ^15N-HSQC spectra were used qualitatively.

Series [2] in a line: Thermal denaturation midpoint (Tm) by CD spectroscopy. Format: physicochemical. The note with it: far UV CD, ellipticity at 222 nm, 50 µM protein, heating 20–90°C at 2°C/min. The method, then: Far UV circular dichroism (CD) spectra were acquired with a Jasco J-810 instrument at a protein concentration of 50 µM using a rectangular cell with a 0.1 cm path length. Spectra were recorded from 260–200 nm with a scan rate of 50 nm/min and a 1.0 nm bandwidth. A midpoint denaturation temperature (Tm) was determined by heating samples from 20–90°C at 2°C/min and monitoring ellipticity at 222 nm.

B1: wild type: PTB domain (aa. 1043–1195) of human AIDA1b, amino terminal 6xHis tag and intervening thrombin site (protein, UniProt Q7Z6G8 1043-1195, looked up, fragment)
chain: TPVQYWQHHPEKLIFQSCDYKAFYLGSMLIKELRGTESTQDACAKMRANCQKSTEQMKKVPTIILSVSYKGVKFIDATNKNIIAEHEIRNISCAAQDPEDLSTFAYITKDLKSNHHYCHVFTAFDVNLAYEIILTLGQAFEVAYQLALQARKG
modifications: PTB domain His tag, thrombin site
notes: PTB domain (aa. 1043–1195) of human AIDA1b, amino terminal 6xHis tag and intervening thrombin site
Regarding B1, in series [1], the “solubility (in words)” value is “poor solubility” and the “soluble concentration, at least one day at room temperature” value is listed as 0.15 mM. Further, in series [1] (concentrated until increased resonance line broadening or apparent turbidity, 15N-HSQC NMR read-out, 20 mM Na-phosphate, pH 7.8, […] NaCl, 0.05% (w/v) NaN3), the Solubility (as a rule, the concentration that dissolves in the medium under given conditions) came out at 100 µM. Further, in series [2], the Tm (commonly the temperature at which the thermal transition is half complete) is 62 °C.

The values are drawn from article PMC3683042, “Solution Structure and Peptide Binding of the PTB Domain from the AIDA1 Postsynaptic Signaling Scaffolding Protein” (PLoS ONE, 2013).
